These results are taken from patent US20190248902A1 (published 2019).

To fix the notation:
T1: Rat ASGR-1 (rat, UniProt P02706 1-284)
T1 construct: Expressed on HEK 293 cells or as membrane prep on beads; cDNA GenBank NM_012503
T1 sequence: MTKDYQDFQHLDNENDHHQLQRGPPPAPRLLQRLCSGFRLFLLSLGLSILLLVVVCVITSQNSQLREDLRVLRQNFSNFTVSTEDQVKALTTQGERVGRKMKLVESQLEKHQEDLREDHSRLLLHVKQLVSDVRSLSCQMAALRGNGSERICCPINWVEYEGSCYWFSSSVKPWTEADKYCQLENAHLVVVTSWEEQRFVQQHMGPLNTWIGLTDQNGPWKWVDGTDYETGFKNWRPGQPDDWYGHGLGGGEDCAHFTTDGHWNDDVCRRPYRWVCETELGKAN

T2: Dog ASGR-1 (dog)
T2 construct: Expressed on HEK 293 cells or as membrane prep on beads; cDNA GenBank XM_546579
T2 chain: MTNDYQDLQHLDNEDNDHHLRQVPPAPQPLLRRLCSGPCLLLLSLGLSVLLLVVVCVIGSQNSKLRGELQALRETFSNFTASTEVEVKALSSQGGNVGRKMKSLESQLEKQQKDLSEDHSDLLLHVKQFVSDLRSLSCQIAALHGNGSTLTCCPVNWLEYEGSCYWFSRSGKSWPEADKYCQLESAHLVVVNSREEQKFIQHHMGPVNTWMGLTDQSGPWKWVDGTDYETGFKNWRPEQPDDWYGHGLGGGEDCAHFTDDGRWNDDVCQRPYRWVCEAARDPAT

B1: 194A4 (antibody, V domains shown)
VH: QVQLVQSGTEVKKPGASLKVSCKASGYTFTVYYLNWVRQAPGQGLEWMGWINPNSGGTNYAQKFQGRVTMTRDTSISTAYMELSRLRSDDTAVYYCARGYDILTGWGQGTLVTVSS
VL: EIVLTQSPGTLSLSPGERATLSCRASRGVSNIYLAWYQQKPGQAPRLLIYGASNRATGIPDRFSGSGSGTDFTLTISRLEPEDFAVYYCQHNDYSMFTFGPGTKVDIK
notes: Tested as hybridoma supernatant at normalized concentration
B2: 198D2 (antibody, V domains shown)
VH: QVQLVESGGGVVQPGRSLRLSCAASGFTFRSYGMHWVRQAPGKGLEWVAVIIYDGSYKYYADSVKGRFTISRDNSKNTLYLQMNSLRAEDTAVYYCARTYSGGMDVWGQGTTVTVSS
VL: QSVLTQPPSVSAAPGQKVTISCSGSSSNIGSNYVSWYQQLPGTAPKVLIYDNNKRPSGIPDRFSGSKSGTSATLGITGLQTGDEADYYCGTWDSRLNVGVFGGGTKLTVL
notes: as for B1
B3: 25A4 (antibody, V domains shown)
VH: QVLLVQSGAEVKRPGASVKVSCKASGYTFTNYDINWVRQATGQGLEWMGWMYPNSGNTGYAQKFQGRVTMTRNTSISTAYMELSSLRSEDTAVYYCASSSGWYYFDYWGQGTLVTVSS
VL: DIVMTQFPDSLAVSLGERATIKCKSSQSVLYSSHNNNYLAWYQQKPGQPPKLLLYWASTRESGVPDRFSGSGSGTEFTLTISSLEAEDVAVYYCQQYYSTPPTFGQGTKVEIK
notes: as for B1
B4: 75G3 (antibody, V domains shown)
VH: QVQLQQWGAGLLKPSETLSLTCAVYGGSLSGSYWSWIRQPPGKGLEWIGEINLSGSTNYNPSLKSRVTISVDTSKSQFSLTLRSVTAADTAVYYCARDYGGLDYWGQGTLVTVSS
VL: EIVLTQSPGTLSLSPGERATLSCRARQNVDSSYLAWYQQKPGQAPRLLIYGASSRATGIPDRFSGSGSGTDFTLTISRLEPEDFAVFYCQQYERSPWTFGQGTKVEIK
notes: as for B1
B5: 190F8 (antibody, V domains shown)
VH: QVQLVESGGGVVQPGRSLRLSCAASGFTFSTYGMHWVRQAPGKGLEWVAVIWYDGSNKNYADSVKGRFTISRDNSKNTLYLQMNSLRAEDTAVYYCARDQGVGYDGLDVWGQGTTVTVSS
VL: DIQMTQSPSSLSASVGDRVTITCRTSQGIGNYLAWFQQKPGKAPKSLLYKASSLQSGVPSKFSGSGSGTDFTLTISSLQPEDFATYYCQQYMTYPLTFGGGTKVEIK
notes: as for B1
B6: 197G3 (antibody, V domains shown)
VH: B5 VH with A23V, T31S, Y32H, Q100P, G101S, L107M
VL: DIQMTQSPSSLSASVGDRVTITCRASQGIGNHLAWFQQKPGKAPKSLIYAASSLQSGVPSKFSGSRSGTDFSLTISSLQPEDFATYYCQQYSNYPVTFGPGTKVDIK
notes: as for B1
B7: 194C1 (antibody, V domains shown)
VH: B5 VH with T31S, K58E, N59H, D99N, Q100R, D105Y
VL: B5 VL with T25A, G30S, L48I, K50A, Q89L, Q90H, M92L
notes: as for B1
B8: 198G3 (antibody, V domains shown)
VH: B5 VH with R19K, S56T, Y80C
VL: B5 VL with T5A, N31K, S56G
notes: as for B1
B9: 191G10 (antibody, V domains shown)
VH: B5 VH with T31S
VL: B5 VL with N31K, A51V
notes: as for B1
B10: 191G1 (antibody, V domains shown)
VH: B5 VH with T31S, K58E, N59H, Q100R, D105Y
VL: B5 VL with T25A, G30S, L48I, K50A, Q90H, M92L
notes: as for B1
B11: 176H4 (antibody, V domains shown)
VH: QVQLVESGGGVVQPGRSLRLSCAASGFTFSSYGMHWVRQAPGKGLEWVAIIWYDGSYKYYADSVKGRFTISRDNSKNTLYLQMSSLRAEDTAVYYCARDAHDFWSGYFAYWGQGALVTVSS
VL: DIVMTQTPLSLSVTPGQPASISCKSSQSLLHGDGKTYLYWYLQKPGQPPQLLIYEVSNRFSGVPDRFSGSGSGTDFTLKISRVEAEDVGIYYCMQSIQIPWTFGQGTRVEIK
notes: as for B1
B12: 194C10 (antibody, V domains shown)
VH: QVQLQQWGAGLLKPSETLSLTCAVSGGSFRYYYWSWIRQPPGKGLEWFGEINHSGSTNYNPSLKSRVTISIDTSKNQFSLKLRSVTAADTAVYYCARDYGAFDIWGQGTMVTVSS
VL: EIVLTQSPGTLSLSPGERATLSCRASPSVNSGYLAWYQQKPGQTPRLLIFGASSRATGIPDRFSASGSGADFTLTISRLEPEDFAVYFCQQYESSPWTFGQGTKVEIK
notes: as for B1
B13: 218G4 (antibody, V domains shown)
VH: QVQLVESGGGVVQPGRSLRLSCAASGFTFSSYGLHWVRQAPGKGLEWVAVIWYDGSNKYYADSVKGRFTISRDNSKNTLYLQMNSLRVEDTAVYYCANWYYYYYGMDVWGQGTTVTVSS
VL: B2 VL with S31N, V47L, I49L, N52S, D61A, R95S, V98T, G99V
notes: as for B1
B14: 202A3 (antibody, V domains shown)
VH: QVQLEQSGAEVKKPGASVKVSCKASGYTFTSYDINWVRQATGQGLEWLGWMNPKRGNTGYAQKFQGRVTMTRNTSISTAHMELSSLRSEDTAVYYCARGRYSREDYYYYYDMDVWGQGTTVTVSS
VL: DIQMSQSPSSLSASVGDRVTITCRASQGIRNDLGWYQQKPGKAPKRLICAASRLQSGVPSRFSGSGSGTEFTLTISSLQPEDFAIYYCLQHHDYPFTFGPGTKVDIK
notes: as for B1
B15: 56E5 (antibody, V domains shown)
VH: QVQLVQSGAEVKKPGASVKVSCQASGYTFTGYHMHWVRQAPGQGLEWMGWINPNNNATNYAQKFQGRVTMTRDTSISTAYMELRRLRSDDTAVYHCARDGTSSFDYWGQGTLVTVSS
VL: DIQMTQSPSSVSASVGDRVTITCRASQGIRKWLAWYQQKPGKAPKLLIYAASSLQSGVPSRFSGSGSGTDFTLTISSLQPEDFATYYCQQANSFPFTFGPGTKVDIK
notes: as for B1
B16: 7G4 (antibody, V domains shown)
VH: QVQLVESGGGVVQPGRSLRLSCAASGFTFNNYVMHWVRQAPGKGLEWVAVIWYDGSNKYYADSVKGRFTISRDNSKNTLYLQMTSLRAEDTAVYYCAREKYSSNWYDYGMDVWGQGTTVTVSS
VL: DIQMTQSPSSLSASVGDRVTITCRASQGIRNDLGWYQQRPGKAPKRLIYAASSLQSGVPSRFSGSGSGTEFTLTISSLQPEDSATYYCLHQYSYPRTFGQGTKVEIK
notes: as for B1
B17: 7E11 (antibody, V domains shown)
VH: QVQLVESGGGVVQPGRSLRLSCAASGFTFSSFGMHWVRQAPGKGLEWVAIIWHDGSNKYYADSVKGRFTISRDNSNNTLYLQMSSLRAEDTAVYYCARDLSMGGMDVWGQGTTVTVSS
VL: DIQMTQSPSSLSASVGDRVTIACRASQNIISYLNWYQQKPGKAPKFLIYTASSLQSGVPSRFSGSGSGTDFTLTISSLQPEDFAIYYCQQTYSTPLTFGGGTKVEIK
notes: as for B1
B18: 48B12 (antibody, V domains shown)
VH: EVQLLESGGGLVQPGGSLRLSCAASGFTFSSYAMNWVRQAPGKGLEWVSAISGRGGNTFYADSVKGRFTISRDNSKNTLYLQMNSLRAEDTAVYYCAKRETYNWNYEGFDYWGQGTLVTVSS
VL: SYELTQPPSVSVSPGQTARITCSGDALPKKYAYWYQQKSGQAPVLVIYEDSKRPSGIPERFSGSSSGTMATLTISGAQVEDEADYYCNSTDSSGNHVVFGGGTKLTVL
notes: as for B1

Substitutions are numbered along the chain they refer to.

In the first assay the target is T1, Rat ASGR-1. The assay can be described thus: FACS on transfected HEK 293 cells or membrane preps on beads; Y = signal at least 2x irrelevant IgG. The method in brief: (§1)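 Antibodies at normalized concentrations bound 1 h at 4° C to HEK 293 cells expressing each antigen, then Alexa Fluor 647 anti-Fc plus 7-AAD 15 min at 4° C, flow cytometry; empty-vector cells as negative. Alternatively, species ASGR-1 membrane preps on streptavidin beads, antibody 1 h RT, Alexa Fluor 488 anti-Fc; FACS buffer with 1 mM CaCl2 throughout.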
As to B1, the binding result was “binds”.

For B2, the binding result is listed as “binds”.

As to B3, the binding result is “binds”.

A further assay concerns the target T2, Dog ASGR-1. The assay is described as above. The method in brief: as §1
B4: the binding result is reported as “binds”.

As to B1, the binding result was “binds”.

Turning to B5, the binding result is “binds”.

With B6, the binding result was “binds”.

Take B7: the binding result is reported as “binds”.

As to B8, the binding result is “binds”.

In the case of B9, the binding result was “binds”.

B10: the binding result is “binds”.

With B11, the binding result was “binds”.

For B12, the binding result is reported as “binds”.

B13: the binding result was “binds”.

On to B14, for which the binding result is “binds”.

The target of another assay is T1, Rat ASGR-1. In words: FACS on transfected HEK 293 cells or membrane preps on beads; binding = signal at least 2x irrelevant IgG. The method in brief:
as §1
Take B15: the binding result was “no binding”.

As for B4, the binding result was “no binding”.

With B16, the binding result is on record as “no binding”.

As to B5, the binding result was “no binding”.

For B6, the binding result is on record as “no binding”.

B7: the binding result is “no binding”.

Consider B8, for which the binding result is recorded as “no binding”.

Turning to B9, the binding result was “no binding”.

Regarding B10, the binding result is “no binding”.

Turning to B17, the binding result is on record as “no binding”.

For B11, the binding result is “no binding”.

B12: the binding result is “no binding”.

For B13, the binding result is “no binding”.

B14: the binding result is “no binding”.

With B18, the binding result is on record as “no binding”.

The target in a further assay is T2, Dog ASGR-1. The description is as above. The method in brief:
as §1
Take B15: the binding result is reported as “no binding”.

As for B16, the binding result is listed as “no binding”.

Turning to B17, the binding result is listed as “no binding”.

On to B2, for which the binding result is “no binding”.

Turning to B3, the binding result was “no binding”.

As to B18, the binding result is on record as “no binding”.
